Test results: a protein production outcome set (Wang et al. 2014)

Experiment: label from the status in PepcDB records

For “MRSNTFIQFAATLVAFVAACLFPAWSMAATHNVVLSAETLPNGQPAYKLLSHTSSNGTVPGYATEATIPGPTLFIKTGDKINVQLTNNTQSPVSFTAPGLSTGNSALAAPGQTKSYRLNARKAGTFAYHDEKAPMLGLFGAIVVDESNGHVQSYVDGDGTIVSTKRSQLSKEFVLFMVGSTFWGAEISRNGNQQPLWANPDLGAYQDDLLRFHVLAVGPGHTFHLHAHRWIEPGSSQKTPHIIDTHILDDLNNSHVFTIKAGTGVGPGVWQLHCHLISHMQSGMNSRIHVVARDSGQSADSIVGASPSGAIFLNDSDQPGLVTFIVSDEPAGWFRSARGDALSPVTHTKSLEIIPPGSSVHFVMSDTAGVHTITSLLWPSEAGHNDHGGDHFMIPFDETKAYRGGAILKLNVPGLYVFTCKIHPFMFAAVIVDDPATDGLDLGNTIDLISGVKNLPTSSDLATRLLHTFFVTTVPKNWQDFTSPNPWKIAYPDVDVVVDIGKVSLPAVLNARYGNDISLSPLPRPAVPGIGEVWVDTQFEKTAGKTKPGTITVVDTSNWTLKRKIALPQINMNNPHNMWPNRDHSIVYTTQWFDNKLTAIKQKTGKLASNVQVGDSPSHVMTLPNTDDITVAINGENDIVIIPAGTTKVNYALLTQSHGQAPGNPHGHWISADGKRIITPNINTHDAGFYDVEDGKIVARTATGEGQPGAHPIAIGMLPDSSKVYAANLLHHSVSVMDGDGNFIKNINLIEHYDPISGAINGPIGILPIQSPVSPDGKVMVTASYGGQIVVIDTRTDSIVKSLPCDPGCHGANFGAKKGGGYYAYITNKFSNRLIVVDPDPNGDGDLSDAEIAGAVTLVADSRVPKDDKISSLAGFGGQGIVALPNVYNGWVQNLNSQWSAGLTDQQRNPVQ”, the protein production was “failed”.
In the case of “MKTVNIGLIGAGRIGQLHASNIISSPYMELKAVSDVQLDHLKGTEIERSVEIMTTNPDELFSNRDIDAIFICSSTDTHAAFIKAAALAGKHIFCEKPISFHVTETKGALNIVNEAGVKFQVGFNRRYDKHFRRVQECVQAGAIGAPHIIRVSSRDPEAPPLSYVERSGGMFMDMTIHDFDMVRYLSGSEVTEVSVKAANLVDSRIGEVGDVDTAIITLMLENGAIAVIDNSRQAAYGYDQRVEVFGSLGSVSADNERKTNVQISTKDTVTLDLPKHFFLDRYEQAYKDEVAEFATAILEDQPLRCTGEDGYKAELLALAAKQSWLENRPVAVKDVEVLEEHAKSE”, the protein production is reported as “failed”.
In the case of “MNYEEIVCDANNLYRAYKASVKTSKWKETTQKFMMNFLRYIFSIQDDLINRTLQNGPTQEFTLFERGRVRPITSIQIRDRIIRHVLCDEILLPEVKKHIIYDNCASIKGRGISHQRDRFEVHLRKYYRLYGNEGWILFGDFSKFYDNIIHEIAKRELLRLFDDDEFIDWLLTQIFDGFKIDVSYMTDEEYATCMTDTFNKLEYRNIPESKLTGEKWMEKSVNIGDQLSQVIGIYYPYRIDNYVKYVRSQKFYGRYMDDWYIMNPSKEELLDLLDHIHQIAEEYGIHINRKKTRIVKISSTYKFLQIKYSLTDSGKVIKRINPKRVTAMRRKLKRLAVKVKNEEISYENVENMFRSWMGGFYKLLSKEQRKNLIGLYEDLFEKSIEIVNKKMIIVDKTR”, the protein production is reported as “failed”.
In the case of “MTIKRVGILGAGKVGIVLAGLALKAGYEVRISGSGSVDKIDLTISTLVPGAIASENAEVVANSDIIILAIPLSRYKNIDPTLLKGKLVIDAMNYWWETDGIREEVLDPTLTSSEQVQNYFKDSTIVKTFNHMGYHNLQEEALPKGDPKRKALFVTGDNHAAVDEVTKFVDSMGFDQVVHYKLTDGIMTEPGSPLFGASLKYQELKQIIDNFDHTDFGRKISSTLNLEHHHHHH”, the protein production is reported as “not failed”.
With “MPVKTFVFDQIQKLMGWCPACRKMTLQTEQPCNFINTAQISGKTGNIPEFRTSNIIFPANTTLVFVLFYICISLLLRYPEDISLFLAGLFLLNIFYYFLYLKTLEAAVLVDRFGVHMHAFRLKKFEIPFEEIESMKLCRLEKRSKKMSLLLVIGGIALCGFFVYIAVAEGEWKPLLLLVSIIPLLLLVEMKQKMRFWNLNTQLYIKTRHKKLYEWTPYYSLITDEASAEELKSFIERHL” the protein production was “failed”.
In the case of “MTTVRTRIAPSPTGDPHVGTAYIALFNLCFARQHGGQFILRIEDTDQLRSTRESEQQIYDALRWLGIEWDEGPDVGGPHGPYRQSERGHIYKKYSDELVEKGHAFTCFCTPERLDAVRAEQMARKETPRYDGHCMHLPKDEVQRRLAAGESHVTRMKVPTEGVCVVPDMLRGDVEIPWDRMDMQVLMKADGLPTYFLANVVDDHLMGITHVLRGEEWLPSAPKLIKLYEYFGWEQPQLCYMPLLRNPDKSKLSKRKNPTSITFYERMGYLPQALLNYLGRMGWSMPDEREKFTLAEMIEHFDLSRVSLGGPIFDLEKLSWLNGQWIREQSVEEFAREVQKWALNPEYLMKIAPHVQGRVENFSQIAPLAGFFFSGGVPLDASLFEHKKLDPTQVRQVLQLVLWKLESLRQWEKERITGCIQAVAEHLQLKLRDVMPLMFPAITGHASSVSVLDAMEILGADLSRYRLRQALELLGGASKKETKEWEKIRDAIPG”, the protein production is reported as “failed”.
With “MASSVILREDGFAPPKPSPTTHEKASTKGDRDGVECKNSDSEEECLVKKTVAAHTDYIYTQDLNLSP” the protein production was “failed”.
In the case of “MMRSVGAVGEPLVVMCVACPRRGGCVVTVVAAAKSCWCRGVSRNLNPGLCPARRVSVRHSGSCILWCGLPSGRVAAVSLPSDPRRFQRIYIEWQSIYLLNMAQQQRMQGQPMIIMGDDAQRVKDRDAQEHNISAARAVADAVRSTLGPKGMDKMLVSSMGDVTVTNDGVTILQEMDIDNPTAEMIVEVAETQEDEAGDGTTTAVAIAGELLKNAEDLLERDIHPTAIIKGYNLAAEQAREEVDNVAVDVDPDDKDLIRSVAETSMTGKGAELDKELLSSIIYDAVNQVAVETNDGGIVVDAANINIETQTGHGVNESQLLRGAAISKDPVHDQMPAAVEDADVLLLNEAIEVEEAEADTSVNIESPDQLQSFLDQEEKQLKEKVQQIADTGANVVFCQKGIDDMAQHYLAKEGILAVRRTKKSDIEFLTNVLDASVVTDLDAASEADVVAGSVTRDSDDELFYVEGESEQAHGVTLLLRGSTDHVVDELERGVSDALDVSAQTLSDGRVLPGGGATEVEVASRLRDFADSVSGREQLAVEAFADSLELVPRVLAENAGLDSIDTLVDLRSAHENDDDEHIGLNVLSGDLEDTFEAGVVEPAHAKEQAVTSASEAANLVLKIDDIISAGDLSTDKGDDDGGAGGMGGGMGGGMGGMM”, the protein production is reported as “failed”.
In the case of “LPRQIAATVDLNSHGAGEHLDEQVIHCAHDLALQCNAELHLLHVCDAAKTHIADFGAGTVTMPGFDSSVRTAQRAAFNRLGDHHQIPLERRHFLEGAAIRAIAQFVGHNRVDVIVMGSHRHDAMQTFLGGTTAHVLEHPLCNVLAIKAVR”, the protein production is reported as “failed”.
In the case of “MSELQILIFNAAVFSILAVYHYWKNRKLNIAFYILAYYSICAWGALLYHEHELFHYMRGRETYSIIPFLYLIPVIFLFAYPIIRYDNTRITRIETLNSNFFINLVWILLFIQIVLYIILFPSFLKAILSSNIGDYRNDTYDESEIVQFPNYFFNILCRLYMGARNVVILIAAYGLLVIKTHRKLLKIFLVTSLCFPVYMFTAYASRAVMIMTFFFLVFIFVFLSVFMNVGLKKKIVSYLILILVPISSAFILISNSRFGNLATYMFYRYLGESFNNYNTHFFYELKGNTWGEAYFVFFRKLMGISSNFKTTREKWEWLDNITGVDTHVFYTFVGGLNIEFGFVGTIVIGLLLSFFMVKKMRPYNVLTLPKFIALGMLAYTLINGVFFFVLQGDWGNLEILFTLFFCFLFSKYRTRKYINK”, the protein production is reported as “failed”.
For “MHNLVPAPKQTQSVLIKNATVHTVIQGVLTNTDVLIENGKISALGPQLSTNTTASTQVVDASGKHLYPGLIALDTSLGLEHHHHHH”, the protein production was “failed”.
With “METEGSLSILHVDDDAELGALVELYLEREDSGLDCTVTTETNPETALSLIRSSETNFDCIVSDYDMPEMNGIDFLEAIRETHPELPVLLFSGEETGDVAAEIIQAGVTDYLKKSVGTDQYTSLIRRVEHAVDSDGSFETGNEVKLSGVGVIGTDERFERVGETYASYYGYESEELVGKHWSELHPSNEVQHIRTHVIPAVRSGGKWTGQSKGLRADETTFTESKMVTALEDGRMLIAVDEIDDSGLAE” the protein production was “failed”.
With “MVKDSEFLTLVFQSILDEIDVGLHVVDEHGNTIVYNNKMMQIEDMEKHDVLNKNLMDVFMFSKQQDSTLVQALQEGKTIKNVKQSYFNNKGQEITTINHTYPIVQDGKIRGAVEIAKDVTKLERLIRENMNKKGSTTYTFDSILGTSPAIQDVIENAKRATRTSSSVLLAGETGTGKELFAQSIHNGSDRSGGPFISQNCAALPDSLVESILFGTKKGAFTGAVDQPGLFEQAHGGTLLLDEINSLNLSLQAKLLRALQERKIRRIGSTKDTPIDVRIIATMNEDPIDAIAGERMRKDLYYRLSVVTLIIPPLRERKEDILLLASEFIQKNNHLFQMNVEHISDDVKQFFLSYDWPGNIRELEHMIEGAMNFMTDEQTITASHLPYQYRMKIKPADIPEPETPRHQPAADLKEKMESFEKYVIENVLRKHGHNISKAAQELGISRQSLQYRLKKFSHSSNE” the protein production was “failed”.
In the case of “LLSLALAALMEDVHAHSGAVYLLAPDEPVLEMAVMAGLPRAFAAPWERVGLSAPLPVAEAVRERRLVWVNGEEQMAGRYPRVAVVLPYSFALAALPLACADTVYGALFVTWPDSHPPELSSRERDQLGVACDRLATRLAHA”, the protein production is reported as “failed”.
With “MDESCERVKAIYNEHEYLEAYSRHTDLRVDVDPKLAIGGMWEEIGKLQFEYLTKKGLQCHHELLDIGCGTLRGGRHFIKYLNSSNYYGVDISFKAIESAKELVVEEKLSDKKPQLLLDKNKSLNFNCYLGKTFDFIFAQSVFTHLKPEHISECFENIGQIMNEDSAFYFTYNNSVEYREVGFKNFYYPFDFFENLVERNGFKLKECKSEYAHPRGQIMVEIVKR” the protein production was “failed”.
In the case of “MLHKVVQVRLYPSIEQKVQLAQAFGCSRWWWNYALNKSIETYKETGKGLTRAALNALLPNLKKAEDTCWLADCYSQVLQATTLNLTTAYKNFFEKRAGFPKFKSKHGKQSIQYPQNVKIVDGESSPVRAASRREGGFPSVGNWRSRSVSEGFTRKGNIKLPGNIGIVKAKIHRPIEGKIKTVTVSKTPSGKYLASILTEVEGVSTPLNTSEKPAITEGKIYGIDLGLKHFAVVSDGEKISKYDNPKHLAKHEKNLKRKQKKLARKVKGSNSRNRYRKVVAKVYERVSNSRQDFLHKLSYKLVSDSQAVIVENLHLLGMVRNHKLAKSISDAGWGMFTNFLAYKLERKGGKLVEIDRWFPSSKLCSNCFYQIGEMPLDVREWTCPSCGTHHDRDGNAAINIRAEGIRMIKAEGSAVSAVGGEVSPKLGRKSKFGHSPVITEADTVLGTPSQCG”, the protein production is reported as “failed”.
For “PQLVRTHEDVPGPVGHLSFSEILDTSLKVSWQEPGEKNGILTGYRISWEEYNRTNTRVTHYLPNVTLEYRVTGLTALTTYTIEVAAMTSKGQGQVSASTISSGVPP”, the protein production was “not failed”.
For “VPPPGTMVMVERKVGSWVDGQPIDLQRDWRSWEQLPDSLKVAVIAGEDQHFAEHHGFDLPAIQQALAHNERGGSIRGASTLSQQVAKNVFLWSGRSWLRKGLEAWFTLLIETLWTKQRILEVYLNSAEWGPGVFGAQAAARYHFGLDAERLSRTQASQLAAVLPSPLKWSAARPGPYVRQRAAWIRQQMWQLGGDDYLLRLER”, the protein production was “failed”.
With “MSNVVVIAVVLIVASLTGHVSAQMDMSPSSGPSGAPDCMANLMNMTGCLSYVTVGEGGGAAKPDKTCCPALAGLVESSPQCLCYLLSGDMAAQLGIKIDKAKALKLPGVCGVITPDPSLCSLFGIPVGAPVAMGDEGASPAYAPGSMSGAESPGGFGSGPSASRGSDAPSSAPYSLFLNLIIFPLAFAFYIFC” the protein production was “failed”.
In the case of “MLHTEKVEYVNQAHEDITGIARDKSIGTNLRDLTFFRQHNALAEQTLAKIFRGDQAKGEVQFSRTDGSRYWLKYIVSQFITDRGNHYALVSGEENSDEHNYKAELEHHHHHH”, the protein production is reported as “not failed”.
